The results in this text go back to paper PMC2171589 (The Journal of Cell Biology, 2005).

Common to all, as to assay: pull-down
The target in assay [1] is ARFGAP1 as a GST fusion protein (GST-ARFGAP1) (UniProt Q62848 1-415).
The target of assay [2] is point mutant GAP (R50K) as GST fusion protein (GST-R50K GAP) (UniProt Q62848 1-415, R50K).
Assay [3] addresses ARFGAP1, wild-type, 6x-his tagged, soluble (UniProt Q62848 1-415).
In assay [4] the target is His-tagged, full-length, R50K point mutant GAP (UniProt Q62848 1-415, R50K).
Sequence of His-tagged, full-length, R50K point mutant GAP (Q62848 whole entry R50K): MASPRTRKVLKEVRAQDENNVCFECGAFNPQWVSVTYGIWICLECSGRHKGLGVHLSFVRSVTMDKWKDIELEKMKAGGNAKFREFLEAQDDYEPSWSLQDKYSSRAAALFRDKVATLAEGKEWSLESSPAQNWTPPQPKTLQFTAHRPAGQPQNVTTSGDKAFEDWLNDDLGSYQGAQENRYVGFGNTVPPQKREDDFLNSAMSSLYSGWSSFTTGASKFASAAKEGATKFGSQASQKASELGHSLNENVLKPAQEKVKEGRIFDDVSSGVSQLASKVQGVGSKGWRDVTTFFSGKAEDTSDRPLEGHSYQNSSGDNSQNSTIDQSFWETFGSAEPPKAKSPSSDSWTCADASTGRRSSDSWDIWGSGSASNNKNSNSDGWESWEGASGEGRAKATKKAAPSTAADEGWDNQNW

Sequence of ARFGAP1, wild-type, 6x-his tagged, soluble (Q62848 whole entry): as the sequence (Q62848 whole entry R50K) above, with K50R counted along it
Sequence of ARFGAP1 as a GST fusion protein (GST-ARFGAP1) (Q62848 whole entry, the tested form may be a part): as the sequence (Q62848 whole entry R50K) above, with K50R counted along it
Sequence of point mutant GAP (R50K) as GST fusion protein (GST-R50K GAP) (Q62848 whole entry R50K, the tested form may be a part): as the sequence (Q62848 whole entry R50K) above

B1: ARF1, full-length myristoylated form (ADP ribosylation factor 1) (natural protein)
chain: not shown
modifications: myristoylated
On to B1, for which the binding result in assay [1] and in assay [2] was “binds” in each case.

B2: GST-Wbp1 (cytoplasmic domain of Wbp1 fused to GST) (domain or fragment)
chain: KKLETFKKTN
Regarding B2, the binding result in assay [3] and in assay [4] was “binds” in each case.
